Results reported in patent US20180259527.

T1: recombinant proclotting enzyme of Japanese horseshoe crab (His-tag free)
T1 chain: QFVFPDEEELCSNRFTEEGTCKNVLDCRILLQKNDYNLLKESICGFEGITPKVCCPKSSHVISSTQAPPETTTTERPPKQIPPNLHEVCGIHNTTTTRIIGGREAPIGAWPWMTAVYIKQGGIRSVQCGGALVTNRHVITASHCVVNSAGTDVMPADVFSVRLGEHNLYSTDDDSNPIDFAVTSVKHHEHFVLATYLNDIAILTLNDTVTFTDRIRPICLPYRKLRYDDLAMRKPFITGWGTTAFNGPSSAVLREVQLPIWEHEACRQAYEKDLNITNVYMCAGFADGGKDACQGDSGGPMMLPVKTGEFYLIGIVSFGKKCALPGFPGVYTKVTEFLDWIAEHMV

B1: His-tag-attached factor C (factor C of Japanese horseshoe crab of SEQ ID NO:2 with a 6xHis-tag at the C-terminus) (protein)
chain: RGVDLGLCDETRFECKCGDPGYVFNVPMKQCTYFYRWRPYCKPCDDLEAKDICPKYKRCQECKAGLDSCVTCPPNKYGTWCSGECQCKNGGICDQRTGACTCRDRYEGAHCEILKGCPLLPSDSQVQEVRNPPDNPQTIDYSCSPGFKLKGVARISCLPNGQWSSFPPKCIRECAKVSSPEHGKVNAPSGNMIEGATLRFSCDSPYYLIGQETLTCQGNGQWSGQIPQCKKLVFCPDLDPVNHAEHQVKIGVEQKYGQFPQGTEVTYTCSGNYFLMGFNTLKCNPDGSWSGSQPSCVKVADREVDCDSKAVDFLDDVGEPVRIHCPAGCSLTAGTVWGTAIYHELSSVCRAAIHAGKLPNSGGAVHVVNNGPYSDFLGSDLNGIKSEELKSLARSFRFDYVSSSTAGRSGCPDGWFEVEENCVYVTSKQRAWERAQGVCTNMAARLAVLDKDLIPSSLTETLRGKGLTTTWIGLHRLDAEKPFVWELMDRSNVVLNDNLTFWASGEPGNETNCVYLDIRDQLQPVWKTKSCFQPSSFACMMDLSDRNKAKCDDPGPLENGHATLHGQSIDGFYAGSSIRYSCEVLHYLSGTETVTCTTNGTWSAPKPRCIKVITCQNPPVPSYGSVEIKPPSRTNSISRVGSPFLRLPRLPLPLARAAKPPPKPRSSQPSTVDLASKVKLPEGHYRVGSRAIYTCESRYYELLGSQGRRCDSNGNWSGRPASCIPVCGRSDSPRSPFIWNGNSTEIGQWPWQAGISRWLADHNMWFLQCGGSLLNEKWIVTAAHCVTYSATAEIIDPSQFKIYLGKYYRDDSRDDDYVQVREALEIHVNPNYDPGNLNFDIALIQLKTPVTLTTRVQPICLPTDITTREHLKEGTLAVVTGWGLNENNTYSEMIQQAVLPVVAASTCEEGYKEADLPLTVTENMFCAGYKKGRYDACSGDSGGPLVFADDSRTERRWVLEGIVSWGSPSGCGKANQYGGFTKVNVFLSWIRQFIHHHHHH
B2: His-tag-free recombinant factor C of Japanese horseshoe crab Tachypleus tridentatus (protein)
chain: RGVDLGLCDETRFECKCGDPGYVFNVPMKQCTYFYRWRPYCKPCDDLEAKDICPKYKRCQECKAGLDSCVTCPPNKYGTWCSGECQCKNGGICDQRTGACTCRDRYEGAHCEILKGCPLLPSDSQVQEVRNPPDNPQTIDYSCSPGFKLKGVARISCLPNGQWSSFPPKCIRECAKVSSPEHGKVNAPSGNMIEGATLRFSCDSPYYLIGQETLTCQGNGQWSGQIPQCKKLVFCPDLDPVNHAEHQVKIGVEQKYGQFPQGTEVTYTCSGNYFLMGFNTLKCNPDGSWSGSQPSCVKVADREVDCDSKAVDFLDDVGEPVRIHCPAGCSLTAGTVWGTAIYHELSSVCRAAIHAGKLPNSGGAVHVVNNGPYSDFLGSDLNGIKSEELKSLARSFRFDYVSSSTAGRSGCPDGWFEVEENCVYVTSKQRAWERAQGVCTNMAARLAVLDKDLIPSSLTETLRGKGLTTTWIGLHRLDAEKPFVWELMDRSNVVLNDNLTFWASGEPGNETNCVYLDIRDQLQPVWKTKSCFQPSSFACMMDLSDRNKAKCDDPGPLENGHATLHGQSIDGFYAGSSIRYSCEVLHYLSGTETVTCTTNGTWSAPKPRCIKVITCQNPPVPSYGSVEIKPPSRTNSISRVGSPFLRLPRLPLPLARAAKPPPKPRSSQPSTVDLASKVKLPEGHYRVGSRAIYTCESRYYELLGSQGRRCDSNGNWSGRPASCIPVCGRSDSPRSPFIWNGNSTEIGQWPWQAGISRWLADHNMWFLQCGGSLLNEKWIVTAAHCVTYSATAEIIDPSQFKIYLGKYYRDDSRDDDYVQVREALEIHVNPNYDPGNLNFDIALIQLKTPVTLTTRVQPICLPTDITTREHLKEGTLAVVTGWGLNENNTYSEMIQQAVLPVVAASTCEEGYKEADLPLTVTENMFCAGYKKGRYDACSGDSGGPLVFADDSRTERRWVLEGIVSWGSPSGCGKANQYGGFTKVNVFLSWIRQFI

Target: T1, recombinant proclotting enzyme of …

Row | Protein | rate of increase in the absorbance at 405 nm (absorbance change rate), proclotting enzyme-activating capacity
1 | B1 | activation of the proclotting enzyme was not observed or hardly observed in the His-tag-attached factor C solution containing the equal amount of factor C (0.7 µL), and even in the solution containing about 7 times the amount of factor C (5 µL)
2 | B2 | the His-tag-free factor C showed a remarkable proclotting enzyme-activating capacity irrespective of whether it was obtained by the viral method or by the stably expressing cell line method
